The text below walks through data of the supplement of paper PMC10567573.

The data set is described as follows: protein stability index of a GFP-peptide fusion (GPS, HEK-293T) (PSI 1-6); higher = more stable.
Setting [1] is: treatment: DMSO, c terminus: a fixed tail appended.
The mark [2] stands for this setting: treatment: MLN4924 1 uM, 8 h, c terminus: a fixed tail appended.
Setting [3] is: treatment: DMSO, c terminus: native.
The mark [4] stands for this setting: treatment: MLN4924 1 uM, 8 h, c terminus: native.

± gives the standard deviation.
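Note: 24-mer peptide tiles fused after GFP, lentivirally expressed, FACS-sorted into six equal bins by GFP/DsRed ratio, decoded by Illumina sequencing, PSI is the read-weighted mean bin number.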

Turning to RYHFATGVWHQMGTDGYMPRELAS [KLHDC10], the protein stability index reads like this: under setting [1], 2.6 ± 0.2; under setting [2], 2.41 ± 0.24.
LERASATLQDLVFDECGITDDQLL [PRAME]: the protein stability index by setting is: under setting [1], 4.65 ± 0.36; under setting [2], 4.71 ± 0.35.
Taken in the same sequence, the figures for MKALLGSYAHSVEDTHVQIGQVHE [FCHO1] were 3.62 ± 0.091 and 3.6 ± 0.25.
Regarding QSSQRMRQNLKLLVEETSCQQNMI [CEP70], the protein stability index turned out to be 3.65 ± 0.16 under setting [1] and 3.66 ± 0.16 under setting [2].
The corresponding values for LTRLRTASGHEPGGSAVCASRVKL [PLEKHN1] are 3.63 ± 0.17 and 3.61 ± 0.28.
The corresponding values for VMSGKMSVSKAQSIYGIPHSTLEY [LCOR] are 2.38 ± 0.19 and 2.23 ± 0.076.
Taken in the same sequence, the figures for PEGGMEQALAGASSGRELGRPKEL [ZNF263] were 4.92 ± 0.11 and 5.29 ± 0.17.
The sequence GVSREEIEREVNILREIRHPNIIT [DAPK3] displayed a protein stability index under setting [1] of 2.38 ± 0.42.
With PRPRRAKRFASLSRFVETLVVADD [ADAMTS4], the protein stability index by setting is: under setting [1], 3.65 ± 0.45; under setting [2], 3.69 ± 0.12.
The corresponding values for IVLAACSDYFCAMFTSELSEKGKP [KLHL12] are 2.76 ± 0.42 and 3.05 ± 0.64.
For the sequence KLDLWSFLDIPRSRLVKYPLLLKE [NET1], the protein stability index is 2.21 ± 0.52 under setting [1] and 1.94 ± 0.47 under setting [2].
The corresponding values for PETVMTTLYTAKKYAVPALEAHCV [BTBD1] are 2.7 ± 0.13 and 2.83 ± 0.15.
On to ADIPSVAFSSRLGGSRGAPGLLMA [DCAF4], for which the protein stability index under setting [1] came to 2.83 ± 0.2 and the protein stability index under setting [2] came out at 2.78 ± 0.51.
The corresponding values for YNIRTDSWTTVTSMTTPRCYVGAT [KLHL12] are 2.44 ± 0.23 and 2.67 ± 0.33.
On to TNNKVYAAKIIPHSRVAKPHQREK [PLK2], for which the protein stability index worked out at 3.71 ± 0.2 under setting [1] and 4.08 ± 0.57 under setting [2].
Sequence VYRDLKPENILLDRDGHIKLTDFG [PRKX] registered a protein stability index under setting [1] of 3.07 ± 0.28 and a protein stability index under setting [2] of 3.54 ± 0.24.
Taken in the same sequence, the figures for RGRTQLFSLNPRSGSLITAGRIDR [PCDHGA10] were 3.29 ± 0.13 and 3.31 ± 0.34.
Consider ENTCLLRGFSGGILAFLVLEAVAG [TSPAN10], for which the protein stability index was 3.27 ± 0.15 under setting [1] and 2.58 ± 0.41 under setting [2].
The corresponding values for FLAENSAFPKMALQAKQDGKKDVS [LCOR] are 4.23 ± 0.29 and 4.36 ± 0.36.
On to SSSYSVSSPRSVDSYSSTQHVPEE [ATF6], for which the protein stability index by setting is: under setting [1], 5.16 ± 0.14; under setting [2], 4.99 ± 0.15.
The corresponding values for RKRMGTRRGRHEQSPTSRPRKVSS [C22orf15] are 4.7 ± 0.25 and 4.59 ± 0.13.
Taken in the same sequence, the figures for NDTYRTDLCLLYPPFMIALACLHV [CCNC] were 3.07 ± 0.38 and 2.97 ± 0.23.
Taken in the same sequence, the figures for VWTNDQVVHWVQSIGLRDYAGNLH [PPFIA4] were 2.16 ± 0.53 and 2.11 ± 0.29.
As for HLYLLRGLPGSGKTTLARQLQHDF [N4BP2L1], the protein stability index under setting [1] is 2.35 ± 0.47 and the protein stability index under setting [2] came out at 2.27 ± 0.29.
The corresponding values for GIQLLIVEYKDIASIHWDWKIALL [SLC35F2] are 2.58 ± 0.61 and 2.69 ± 0.78.
As to EVEGTKPSATEMIWAVLAAFNKS [GOLPH3L], the protein stability index reads like this: under setting [3], 2.4 ± 0.18; under setting [4], 2.4 ± 0.33.
Take IFRSKLKNRPSSEGSINKILSGLD [CDC14A]: the protein stability index reads like this: under setting [1], 2.27 ± 0.32; under setting [2], 2.69 ± 0.42.
Taken in the same sequence, the figures for AVGQDCYTRIWSLHDARLLRTIPS [DCAF4] were 2.48 ± 0.36 and 2.39 ± 0.26.
Turning to LMRSQSPKAQPQTWKSGKQTMLSH [TRIM29], the protein stability index under setting [1] is 3.34 ± 0.33 and the protein stability index under setting [2] amounted to 3.6 ± 0.28.
AKPRLAERMTTREKKVLEAGMGKV [HDAC6]: the protein stability index runs as follows: under setting [1], 4.38 ± 0.17; under setting [2], 3.98 ± 0.2.
Take KANNLSSLSKKYRQDAKYLNMRST [SEC22B]: the protein stability index was found to be 3.23 ± 0.11 under setting [1] and 3.33 ± 0.24 under setting [2].
Taken in the same sequence, the figures for PPVWYLKEEDHYQRARKEREKEDY [RHOBTB2] were 5.16 ± 0.12 and 5.22 ± 0.16.
Taken in the same sequence, the figures for HLLGIPHSVLQIRYSGKILKNNET [IQUB] were 2.77 ± 0.41 and 2.32 ± 0.38.
Taken in the same sequence, the figures for CRFLLNSRVTDAAFNFLLVWYYCT [TMEM120A] were 2.85 ± 0.74 and 2.38 ± 0.48.
With GCIAAENCIGIRDFALHYCLHHVH [GAN], the protein stability index runs as follows: under setting [1], 2.72 ± 0.25; under setting [2], 2.53 ± 0.33.
RKQLQPTHCKYEGPRKARRLWFA: the protein stability index reads like this: under setting [3], 2.85 ± 0.39; under setting [4], 3.04 ± 0.13.
As to DASEAHESSSRGEAGAPGEEDIQG [CHGB], the protein stability index is 5.69 ± 0.3 under setting [1] and 5.56 ± 0.28 under setting [2].
The corresponding values for SDYPSPDISPPIFRRGEKLRVISD [SLA] are 3.88 ± 0.3 and 4.2 ± 0.25.
QDTELPKAEECDTITLNCPRNSDM [EDARADD]: the protein stability index under setting [1] is 5.32 ± 0.29 and the protein stability index under setting [2] was found to be 5.42 ± 0.27.
Consider ERELLGQDEETAMRKSLGEEELS [RSPH3], for which the protein stability index came out at 5.48 ± 0.4 under setting [3] and 5.575 ± 0.042 under setting [4].
Turning to PLLLFTYLNSFLHQRIPQSVRILG [SLC29A1], the protein stability index was 2.96 ± 0.54 under setting [1] and 2.97 ± 0.54 under setting [2].
Regarding DFGLAKEYIDPETKKHIPYREHKS [CSNK1G1], the protein stability index reads like this: under setting [1], 4.26 ± 0.34; under setting [2], 4.34 ± 0.086.
As for QPVPNTTEPDYKSKDWVFLNYTYK [STK38L], the protein stability index was 3.33 ± 0.63 under setting [1] and 3.14 ± 0.31 under setting [2].
Regarding EEEAASPEGKRVPKRLRCWEEEED [FANCE], the protein stability index was found to be 5.4 ± 0.42 under setting [1] and 5.38 ± 0.21 under setting [2].
The corresponding values for SENLEEETENIIAANHWVLPAAEF [TRIP13] are 4.8 ± 0.26 and 4.61 ± 0.17.
Taken in the same sequence, the figures for EEHSLEQVQSMVVGEVLKDIETAC [SPDEF] were 4.8 ± 0.26 and 4.85 ± 0.091.
The corresponding values for RYILPVYGICREPVGLVMEYMETG [RIPK4] are 2.12 ± 0.62 and 2.69 ± 0.55.
With TAPLPMPEGPEPAAPGKQPGRGHT [ELOA2], the protein stability index by setting is: under setting [1], 5.53 ± 0.15; under setting [2], 5.27 ± 0.2.
As for RLLLAGAEVQAKLENAEVLELTVR [HES6], the protein stability index reads like this: under setting [1], 2.37 ± 0.38; under setting [2], 2.63 ± 0.49.
Taken in the same sequence, the figures for CGDELPWTLQRRLTRLRTASGHEP [PLEKHN1] were 2.68 ± 0.12 and 2.7 ± 0.34.
The sequence RRILDELTLCKSDLESQVESLREE [KRT34] gave a protein stability index under setting [1] of 4.82 ± 0.14 and a protein stability index under setting [2] of 4.75 ± 0.18.
As to EQNQEGDAAYRKALDLAREFLPQG [AUH], the protein stability index is 4.42 ± 0.19 under setting [1] and 4.44 ± 0.37 under setting [2].
The corresponding values for KSPDNEDSGDSKDIRLTLMEEVLL [GOLPH3L] are 3.82 ± 0.3 and 4.07 ± 0.19.
